Measured values published in article PMC5862501, “Lung macrophage scavenger receptor SR-A6 (MARCO) is an adenovirus type-specific virus entry receptor” (PLoS Pathogens, 2018).

How the values were obtained:
[1] = target: mouse SR-A6 expressed in L-929 cells (mouse) (UniProt Q60754); test: binding of fluorophore-labelled virions to cells, confocal microscopy; Alexa-Fluor488-labelled HAdV-C5 bound at 4°C to L-929 cells transfected with mouse SR-A6-IRES-Tomato; Tomato-positive against Tomato-negative cells
[2] = target: the molecule itself; test: non-reducing SDS-PAGE; purified soluble mSR-A6; monomers and trimers

Row | Molecule | fold, mean cell-associated virus number in Tomato-positive over Tomato-negative cells [1] | stoichiometry N [2]
1 | human adenovirus type C5 (HAdV-C5) virion (complex) | 7 fold | –
2 | soluble mouse SR-A6 (entire extracellular part) (domain or fragment, SR-A6 (MARCO), mouse, the entire extracellular part; Largely monomeric with a small amount of trimers (15-20%) in non-reducing SDS-PAGE; also called mSR-A6 soluble; soluble SR-A6) QVLNLQEQLQMLEMCCGNGSLAIEDKPFFSLQWAPKTHLVPRAQGLQALQAQLSWVHTSQEQLRQQFNNLTQNPELFQIKGERGSPGPKGAPGAPGIPGLPGPAAEKGEKGAAGRDGTPGVQGPQGPPGSKGEAGLQGLTGAPGKQGATGAPGPRGEKGSKGDIGLTGPKGEHGTKGDKGDLGLPGNKGDMGMKGDTGPMGSPGAQGGKGDAGKPGLPGLAGSPGVKGDQGKPGVQGVPGPQGAPGLSGAKGEPGRTGLPGPAGPPGIAGNPGIAGVKGSKGDTGIQGQKGTKGESGVPGLVGRKGDTGSPGLAGPKGEPGRVGQKGDPGMKGSSGQQGQKGEKGQKGESFQRVRIMGGTNRGRAEVYYNNEWGTICDDDWDNNDATVFCRMLGYSRGRALSSYGGGSGNIWLDNVNCRGTENSLWDCSKNSWGNHNCVHNEDAGVECS | – | 3
